This is an account of results in US11419948B2, “Functionalized microgels with fibrin binding elements” (Georgia Tech Research Corporation, priority 2013, dated 2022).

One assay concerns human plasma components. Description: Qualitative human plasma assay (protein A pull down, polyacrylamide gel). Format: binding. As to conditions: 30 minutes room temperature. As to the method:
H6 binding was determined through both qualitative and quantitative human plasma assays. The qualitative assay involved incubating either H6, the non-binding negative control, S11, or saline with human plasma at room temperature for 30 minutes. The plasma mixtures were subsequently incubated with protein A beads with the intent to pull down all IgG isotypes (including H6 and S11).
The eluants from the protein A pull down experiment were run on a polyacrylamide gradient gel to visualize any band shifts present in the H6-plasma solution that would indicate a binding interaction not present in the S11-plasma or saline-plasma solutions.

The target of a further assay is T1, fibrinogen (Homo sapiens, UniProt P02671+P02675+P02679).
T1 sequence (P02671 20-629 limits assumed): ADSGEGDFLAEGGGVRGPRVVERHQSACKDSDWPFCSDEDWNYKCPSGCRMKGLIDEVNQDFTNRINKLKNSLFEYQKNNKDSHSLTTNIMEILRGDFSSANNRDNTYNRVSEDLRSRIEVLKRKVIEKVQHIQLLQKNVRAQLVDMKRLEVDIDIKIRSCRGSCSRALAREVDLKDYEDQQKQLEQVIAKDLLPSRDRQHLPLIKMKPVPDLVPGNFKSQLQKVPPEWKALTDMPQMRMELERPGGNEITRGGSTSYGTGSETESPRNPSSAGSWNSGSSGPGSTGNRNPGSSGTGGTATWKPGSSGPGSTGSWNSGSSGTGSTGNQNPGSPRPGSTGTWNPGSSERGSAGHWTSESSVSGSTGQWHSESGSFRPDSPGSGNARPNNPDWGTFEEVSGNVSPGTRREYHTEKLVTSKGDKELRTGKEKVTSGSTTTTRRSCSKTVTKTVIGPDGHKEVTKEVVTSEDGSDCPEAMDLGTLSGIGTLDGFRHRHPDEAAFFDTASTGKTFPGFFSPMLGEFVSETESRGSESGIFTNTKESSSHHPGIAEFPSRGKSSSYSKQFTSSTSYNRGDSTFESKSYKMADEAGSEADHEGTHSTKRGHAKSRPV
T1 sequence (P02675 31-491): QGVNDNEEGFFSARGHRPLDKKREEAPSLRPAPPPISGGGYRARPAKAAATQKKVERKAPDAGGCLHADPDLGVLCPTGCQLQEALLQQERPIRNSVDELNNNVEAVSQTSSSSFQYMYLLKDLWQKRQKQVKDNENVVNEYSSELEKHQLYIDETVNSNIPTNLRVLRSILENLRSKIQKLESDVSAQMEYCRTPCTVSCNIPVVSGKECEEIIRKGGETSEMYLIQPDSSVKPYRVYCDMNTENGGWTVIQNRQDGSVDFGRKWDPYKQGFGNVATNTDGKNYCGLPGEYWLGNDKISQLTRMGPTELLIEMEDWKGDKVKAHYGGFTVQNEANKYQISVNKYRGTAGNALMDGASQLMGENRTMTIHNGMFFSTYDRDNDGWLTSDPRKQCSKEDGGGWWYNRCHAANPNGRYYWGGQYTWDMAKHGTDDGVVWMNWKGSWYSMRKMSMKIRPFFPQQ
T1 sequence (P02679 27-453): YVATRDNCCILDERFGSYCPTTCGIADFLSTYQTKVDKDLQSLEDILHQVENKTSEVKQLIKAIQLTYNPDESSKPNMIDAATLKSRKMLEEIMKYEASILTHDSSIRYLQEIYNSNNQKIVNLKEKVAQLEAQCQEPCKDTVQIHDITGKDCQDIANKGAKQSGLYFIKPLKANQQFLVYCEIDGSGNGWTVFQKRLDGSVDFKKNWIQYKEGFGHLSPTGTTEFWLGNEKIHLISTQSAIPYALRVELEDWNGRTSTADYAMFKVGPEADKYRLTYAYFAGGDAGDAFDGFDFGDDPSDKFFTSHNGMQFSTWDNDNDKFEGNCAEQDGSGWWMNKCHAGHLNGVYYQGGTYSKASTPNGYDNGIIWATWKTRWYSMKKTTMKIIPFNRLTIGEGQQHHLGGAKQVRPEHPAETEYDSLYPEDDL
Description: Clottability assay (protein incorporation into clot). Conditions: all H6 concentrations tested. The class given is biochemical. As to the method:
The clottability assay involved clotting purified fibrinogen or fibrinogen in the presence of H6 or S11, subsequently removing the gelled clot from solution, and measuring the amount of protein that was not incorporated into the clot. The same molar ratios of H6 and S11 to fibrinogen were investigated as per the turbidity assay. Soluble protein concentrations were measured using standard Quant-It assay protocols, and results were normalized to unpolymerized fibrinogen or fibrinogen-nanobody solutions of identical protein composition.

B1: H6: fibrin-specific human sdFv clone from phage biopanning, SEQ ID NO: 1 (protein)
VHH: QVQLLESGGGLVQPGGSLRLSCAASGDRFTHNDMGWVRQAPGKGLEWVSTIPTTDGSTYYADSVKGRFTISRDNSKSTLYLQMNSLRAEDTAVYYCATGYMWKAPAYVKYWGQGTLVTVSSAAAEQKLISEEDLNSAAHYTDIG
With B1, the “non-specific binding to human plasma components (band shifts)” value in the assay with human plasma components was “did not non-specifically bind”. The “protein incorporation (clottability)” value with fibrinogen is reported as “greater than 80%”.
